Key:
MS2 coat protein [1] = assay: apparent KD of MS2 coat protein, switch OFF state (with FMN for OFF switches, without FMN for ON switches); designed switch direction (-1 OFF switch, 1 ON switch): 1; higher = weaker reporter binding; conditions: FMN input: 0 or 200 uM; Eterna round: R93 (includes R88 designs)
In short: (§1)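 The designed RNA switches were transcribed on-chip from Illumina sequencing clusters. In 100 mM Tris-HCl pH 7.5, 80 mM KCl and 4 mM MgCl2, without or with constant ligand, they were titrated with SNAP-549-labelled MS2 coat protein from 0.7 or 1.5 nM to 3 µM in twofold steps. Apparent KD is the per-design median of normalised cluster binding-curve fits.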

MS2 coat protein [2] = assay: apparent KD of MS2 coat protein, switch ON state; designed switch direction (-1 OFF switch, 1 ON switch): 1; higher = weaker reporter binding; conditions: FMN input: 0 or 200 uM; Eterna round: R93 (includes R88 designs)
In short: as §1

Sequence	apparent KD of MS2 coat protein (MS2 coat protein [1]) [nM]	apparent KD of MS2 coat protein (MS2 coat protein [2]) [nM]
AAAAACAUGGUGCAGGAUAUAUUAAUAGUCACAUGAGGAUCACCCAUGUUCAUUUAUAUGAACGAGUAGAAGGGCGAUGAAAAAA [Mat - Same state - Malcolm Mod - D111]	410	247
AAAACUACAGAUCAGGAUAUGUUUAGGUAAACAUGAGGAUCACCCAUGUGCACCUGAUAAACAACACAGAAGGGAUAACGUGGGA [Geerreleon]	25.7	20.7
GGAAAACAUGAGGAUCACCCAUGUAGAAAUAUGGGAGGAUAUACAAAGACGAAAGUCAAAGUAGAAGGCCUAAAAG [salish99-SS1-084]	60.2	33.9
AUAACAACGUAUGAGGAUAUCCAUAAUAAAACAUGAGGAUCACCCAUGUGAAUAAAAUAACAAUGGGAGAAGGCAUACGUACAAU [SS 2 M 51]	16	12.1
GAAAAACAUGAGGAUCACCCAUGUAGAAAUAUGGGAGGAUAUACGAAGACGAAAGUCAAAGUAGAAGGCCUAAGAA [Mat - Same State 1 - Eli mod - D109]	87.8	21.7
ACCCGAAAGACGUAGGAUAUGUGGUCACCGACAUGAGGAUCACCCAUGUAUGCGGGAGAAUGGGUGCAGAAGGACGCUGUUCGGU [Antilera]	192	21.9
GAAAAACAUGAGGAUCACCCAUGUGAAAAUAUGGGAGGAUAUACGAAGACGAAAGUCAAAGUAGAAGGCCUAAAAG [Garnet 31]	87.9	23.8
AAAACACAUGAGGAUCACCCAUGUAGAAAUACGGGAGGAUAUACGAAAACGAAAGACAAAGUAGAAGGCCUAAAAG [saturn 7]	53	38.7
CGGAAGGAGAGAGAGGAUAUCCAAAGGAAAACAUGAGGAUCACCCAUGUAGAAGGUAGGAAAUUGGGAGAAGGCUCAAGAGAGAG [salish99-ss2-119(!)]	51.4	37.4
GUGGUACAUGAGGAUCACCCAUGUGUGGGAGCAUGAGGAUAUGUCAGUCCAUGAAAUACGAUAGAAGGCAUGGUGA [JR_SS001_Sub1712]	264	234
CAGAGACAUGAGGAUCACCCAUGUAGGAUUAUGGGAGGAUAUACAAAGACGAGAGUCAGAGUAGAAGGCCUAGGAC [salish99-ss1-144]	45.6	20.8
UAAAAACAUGAGGAUCACCCAUGUAGAAAUAUGGGAGGAUAUACAAAGACGAAAGUCAAAGUAGAAGGCCUAAAAU [Mat - Same State 1 - Eli mod - 32]	62.2	16.5
GCCUAACAUGAGGAUCACCCAUGUAGUGGGUUGUUAGGAUAUGGGCCGCAUUACGCUGCACCAGAAGGAAUAGAAG [Rasoraer]	475	319
AAUACACAUGAGGAUCACCCAUGUAGAAACAAGUCAGGAUAUCCGAUCCACAUGUGAUAAGGAGAAGGGACAAUAA [SS 1 Tesla 7]	163	25.5
GAGAGACAUGAGGAUCACCCAUGUAGGAUUAUGGGAGGAUAUACAAAGACGAGAGUCAGAGUAGAAGGCCUAGGAC [salish99-ss1-140]	56.7	23.4
AGAAAUAAAAAUGAGGAUAUGCAAAAGAAAACAUGAGGAUCACCCAUGUAAAAGAAAAUAAAUGGGCAGAAGGCAUGAAAUAAAGA [Helter Skelter 3]	75.1	33.8
AAAUAACAUGAGGAUCACCCAUGUUGCAACGGUACAGGAUAUGUGGGUGAAAAUAGCAUGACAGAAGGGUAGUGUA [SameState1 Malc#30]	150	207
UUUAAUUAUACGAAGGAUAUCGGUAAUUAGACAUGAGGAUCACCCAUGUUAUAUGGUUCCAUAUUCGAGAAGGUCGCGGGUGAAC [JR_SS002_Sub508]	19.3	45.6
AUUAUUAUUACGCAGGAUAUCGAGGUUUUUACAUGAGGAUCACCCAUGUUUUUUUUUUUAUAUUACGAGAAGGGCGAUAUUAUUA [salish99-SS2-01]	21.9	22.9
AGAAGACAUGAGGAUCACCCAUGUGGGAAUAUGGGAGGAUAUACAAAGACGAGAGUCAGAGUAGAAGGCCUAGGAG [salish99-SS1-093]	150	63.3
AGGAAACAUGAGGAUCACCCAUGUAAAAAAUAUGGAGGAUAUACUAGAAGAAACAAAAUAGUAGAAGGCCAAAAAA [75%, Ex sub1, 31]	19.4	15.2

Sequence	apparent KD of MS2 coat protein (MS2 coat protein [1]) [nM]	apparent KD of MS2 coat protein (MS2 coat protein [2]) [nM]
AAUAACAAAAGAAAGGAUAUGCGCACAGGAACAUGAGGAUCACCCAUGUGGCCCGAAAGGGCAUAGCAGAAGGUUCACACGCAUA [Default title]	42	32.7
GUCCAACAUGAGGAUCACCCAUGUGCAUGACACCGAGGAUAUGGGACUAAAGGUGCUGGACCAGAAGGCGGAAGAA [Laceus]	45.8	27.1
AAAAAACAUGAGGAUCACCCAUGUAAUACAACAUCAGGAUAUUGGCUUGACUAUGUCUUACAAGAAGGGAUGAAAA [Same State 1.3d (Same State 1 - Omei 2 )]	81.5	30.5
AUAAUAAACUGUGAGGAUAUCCAUAAUAAAACAUGAGGAUCACCCAUGUGUAGAUAAUAAUAAUGGGAGAAGGCACAUAAUAAUA [Mat - Same state - Mayanna Mod - D102]	26.2	19.6
AAAAAACAUGAGGAUCACCCAUGUAGAAACAUGGGAGGAUAUACAAAGACGAAAGUCAAAGUAGAAGGCCUAAAGA [Mat - Same State 1 - Mod - D162]	182	162
CUUAGACAUGAGGAUCACCCAUGUCGAACAAACAAAGGAUAUGGGAGCCGAAGACGGCUAUUAGAAGGUUGCAAAA [Anrioned]	26.4	28
AAAACACAUGAGGAUCACCCAUGUAGAAAUAUGGGAGGAUAUACGAAAACGAAAGACAAAGUAGAAGGCCUAAAAG [saturn 4]	153	41.6
GACUGACAUGAGGAUCACCCAUGUAUUCAAACAUGAGGAUAUAUGACACGUCAUCGACGGAUAGAAGGCAUAGAUG [JR_SS001_Sub1210]	205	163
AAUAUAUUAAGCGAGGAUAUCGAGGAAAAAACAUGAGGAUCACCCAUGUGGGUAAAAAAAAAAAGUGAGAAGGUGCUUAAUAUAU [Samwise Clockwise 9 - Jieux - Same State 2]	74.7	31.8
AAAAGAGCGACACAGGAUAUGUUGACUCUAACAUGAGGAUCACCCAUGUGCAUUUAGGGUCGUGCGCAGAAGGGUGUAGCUCGGA [Laesbibiti]	24.7	11.7
AAAAAAAAAGUCGAGGAUAUCCACAUGGCGACAUGAGGAUCACCCAUGUGAAGAAAAGCACAUGAGGAGAAGGCGACAAAAAAAA [Same State 2.7a (Tightrope mod)]	225	32.7
GUGAAGGAGAGAGAGGAUAUCCAAAGGAAAACAUGAGGAUCACCCAUGUAGAAGGUAGGAAAUUGGGAGAAGGCUCAAGAGAGAG [salish99-ss2-114]	39.5	27
AAAUAGUGCAUUAAGGAUAUGUCGCAUGACACAUGAGGAUCACCCAUGUGGUAACACAGAGGGUGGCAGAAGGUAGUGUGCAAAC [Mod 3 of Pariah 6 (Round1) by Hyphema]	15.1	108
AUAUAAAUAAGGUAGGAUAUACUAAAGUAAACAUGAGGAUCACCCAUGUGAAGAAAGAAACUCAUGUAGAAGGACCAUAUAUAUA [viburnum 2]	248	27.2
AAGAAAGUUUACGAGGAUAUGUUCCGCAGUACAUGAGGAUCACCCAUGUGAACACGAAGGGCGACGCAGAAGGCGUGAGCAAUGA [Orononed]	89.2	30.9
UAUAGACAUGAGGAUCACCCAUGUAGAAUUAUGGGAGGAUAUACAAAGACGAGAGUCAGAGUAGAAGGCCUAGGAG [salish99-ss1-153]	63.4	31.8
AAUAAAAAUAGUCAGGAUAUGAGAACUAAGACAUGAGGAUCACCCAUGUAAACAGAACAAGUAAAUCAGAAGGGACAGGGUGAAA [JR_SS002_Sub201]	30.2	39.3
GAUAAACAUGAGGAUCACCCAUGUAGAUAUAUGGGAGGAUAUACAAAGACGAUAGUCAAAGUAGAAGGCCUAAAAG [77%, Mat - Mod of Eli - With 3 more U's]	79.2	28.6
AGAAAUAAAAGGCAGGAUAUCCAAAAAAAAACAUGAGGAUCACCCAUGUAAAAAAAAAAAAAAUGGGAGAAGGGCCAAAUAAAGA [Mat - Same State 2 - Eli mod - D88]	37.5	16
CUCAGGAAGAGAGAGGAUAUCCAAAGGAAAACAUGAGGAUCACCCAUGUAAAAGGUAGGAAAUUGGGAGAAGGCUCAAGAGAGAG [salish99-ss2-096]	40	22.3
